Residue numbers refer to the chain shown, from its start. Like-named read-outs stand apart in the source and are kept apart here.
What was measured:
[1] = molecular target: recombinant human IL-21 (rhIL-21) (human, UniProt Q9HBE4 30-162, limits assumed); experiment: cell-based or functional assay
[2] = molecular target: T1, recombinant IL-21Ra-Fc (AcroBiosystems) (human, UniProt Q9HBE5 20-232); experiment: SPR, not shown
T1 construct: bought; also called rIL-21Rα; rIL-21Ra-Fc; not shown: Fc of the bought reagent, not described
T1 sequence (Q9HBE5 20-232): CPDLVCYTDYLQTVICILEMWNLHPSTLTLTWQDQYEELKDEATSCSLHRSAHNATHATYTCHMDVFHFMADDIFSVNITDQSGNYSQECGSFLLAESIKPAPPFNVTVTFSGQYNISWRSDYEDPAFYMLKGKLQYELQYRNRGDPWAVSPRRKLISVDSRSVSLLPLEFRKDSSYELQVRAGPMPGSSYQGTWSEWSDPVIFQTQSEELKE

[3] = molecular target: T2, human IL-21 receptor (IL-21R) on cells (human, UniProt Q9HBE5 20-538; P31785 23-369); experiment: cell-based or functional assay
T2 sequence (Q9HBE5 20-538, chain 1 of 2): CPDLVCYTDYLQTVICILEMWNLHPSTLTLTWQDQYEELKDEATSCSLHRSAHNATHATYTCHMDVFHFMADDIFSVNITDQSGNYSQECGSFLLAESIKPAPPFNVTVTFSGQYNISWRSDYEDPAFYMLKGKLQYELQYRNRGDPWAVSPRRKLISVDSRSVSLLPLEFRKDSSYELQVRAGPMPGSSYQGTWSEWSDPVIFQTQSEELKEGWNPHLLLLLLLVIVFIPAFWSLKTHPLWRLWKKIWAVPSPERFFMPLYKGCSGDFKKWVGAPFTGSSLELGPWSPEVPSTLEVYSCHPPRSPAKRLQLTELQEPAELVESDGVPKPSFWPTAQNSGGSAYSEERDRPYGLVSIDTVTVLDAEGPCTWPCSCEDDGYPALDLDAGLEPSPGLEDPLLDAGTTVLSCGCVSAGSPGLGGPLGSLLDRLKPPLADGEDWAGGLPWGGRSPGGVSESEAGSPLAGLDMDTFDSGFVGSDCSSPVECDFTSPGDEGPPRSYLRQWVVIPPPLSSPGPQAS
T2 sequence (P31785 23-369, chain 2 of 2): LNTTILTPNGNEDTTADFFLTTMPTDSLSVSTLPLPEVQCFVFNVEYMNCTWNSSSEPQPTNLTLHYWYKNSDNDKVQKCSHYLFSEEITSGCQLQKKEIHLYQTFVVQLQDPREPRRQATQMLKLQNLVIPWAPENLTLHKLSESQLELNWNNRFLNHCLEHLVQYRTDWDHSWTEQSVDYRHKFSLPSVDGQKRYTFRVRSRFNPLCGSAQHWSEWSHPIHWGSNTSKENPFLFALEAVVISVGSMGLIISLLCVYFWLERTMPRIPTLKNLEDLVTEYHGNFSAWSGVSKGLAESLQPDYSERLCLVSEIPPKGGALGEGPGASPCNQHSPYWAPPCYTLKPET

[4] = molecular target: T2, human IL-21 receptor (IL-21R) on cells; experiment: cell-based or functional assay; remark: listed apart in the source
[5] = molecular target: T2, human IL-21 receptor (IL-21R) on cells; experiment: cell-based or functional assay; remark: listed apart in the source

recombinant human IL-21 (rhIL-21), sequence (Q9HBE4 30-162 limits assumed): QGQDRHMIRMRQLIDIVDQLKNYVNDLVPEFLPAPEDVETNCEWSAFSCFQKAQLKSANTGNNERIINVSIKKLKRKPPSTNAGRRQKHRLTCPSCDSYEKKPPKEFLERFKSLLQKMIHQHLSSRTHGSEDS

B1: FYP014 (antibody, human IgG1, V domains shown)
VH: EVQLVESGGGLVKPGGSLRLSCAASGFIFSSYSMNWVRQAPGKGLEWVSSITSGSYYIHYADSVKGRFTISRDNAKNSLYLQMNSLRAEDTAVYYCVRERGWGYYGMDVWGQGTTVTVSS
VL: AIQLTQSPSSLSASVGDRVTITCRASQDIDSALAWYQQKPGKAPKILIHDASSLESGVPSRFSGSGSGTDFTLTISSLQPEDFATYYCQQFNSYPYTFGQGTKLEIK
notes: human IgG1; also called EP3103813A1 clone 366.328.10.63
% pSTAT3+ Jurkat cells, 0.1 nM rhIL-21 + 0 nM antibody [1]: 82.7%
% pSTAT3+ Jurkat cells, 0.1 nM rhIL-21 + 0.1012 nM antibody [1]: 59.4%
% pSTAT3+ Jurkat cells, 0.1 nM rhIL-21 + 0.1602 nM antibody [1]: 6.07%
% pSTAT3+ Jurkat cells, 0.1 nM rhIL-21 + 0.2536 nM antibody [1]: 4.93%
% pSTAT3+ Jurkat cells, 0.1 nM rhIL-21 + 0.4015 nM antibody [1]: 4.39%
% pSTAT3+ Jurkat cells, 0.1 nM rhIL-21 + 0.6355 nM antibody [1]: 5.32%
% pSTAT3+ Jurkat cells, 0.1 nM rhIL-21 + 1.006 nM antibody [1]: 5.9%
% pSTAT3+ Jurkat cells, 0.1 nM rhIL-21 + 1.5925 nM antibody [1]: 4.78%
% pSTAT3+ Jurkat cells, 0.1 nM rhIL-21 + 2.5209 nM antibody [1]: 5.16%
% pSTAT3+ Jurkat cells, 0.1 nM rhIL-21 + 3.9906 nM antibody [1]: 4.64%
% pSTAT3+ Jurkat cells, 0.1 nM rhIL-21 + 6.3171 nM antibody [1]: 3.99%
% pSTAT3+ Jurkat cells, 0.1 nM rhIL-21 + 10 nM antibody [1]: 3.83%
binding result [2]: binds

B2: YWW798 (bispecific antibody, human IgG1, kappa, lambda, L234A L235A)
heavy 1: EVQLLESGGGLVQPGGSLRLSCAASGFTFSINAMTWVRQAPGKGLEWVSTISGSGFSTYYADSLKGRFTISRDNSKNTLYLQMNSLRAEDTAVYYCAKEVYGDYWGQGTLVTVSSASTKGPSVFPLAPSSKSTSGGTAALGCLVKDYFPEPVTVSWNSGALTSGVHTFPAVLQSSGLYSLSSVVTVPSSSLGTQTYICNVNHKPSNTKVDKRVEPKSCDKTHTCPPCPAPEAAGGPSVFLFPPKPKDTLMISRTPEVTCVVVDVSHEDPEVKFNWYVDGVEVHNAKTKPREEQYNSTYRVVSVLTVLHQDWLNGKEYKCKVSNKALAAPIEKTISKAKGQPREPQVCTLPPSREEMTKNQVSLSCAVKGFYPSDIAVEWESNGQPENNYKTTPPVLDSDGSFFLVSKLTVDKSRWQQGNVFSCSVMHEALHNHYTQKSLSLSPGK
light 1: not shown
heavy 2: QVQLQESGPGLVKPSETLSLTCTVSGGSISSDYWGWIRQPPGKGLEWIGYISYSGSTNYNPSLKSRVTISVDTSRNQFSLKLSSVTAADTAVYYCARSAGVTDFDAWGQGTLVTVSSASTKGPSVFPLAPSSKSTSGGTAALGCLVKDYFPEPVTVSWNSGALTSGVHTFPAVLQSSGLYSLSSVVTVPSSSLGTQTYICNVNHKPSNTKVDKRVEPKSCDKTHTCPPCPAPEAAGGPSVFLFPPKPKDTLMISRTPEVTCVVVDVSHEDPEVKFNWYVDGVEVHNAKTKPREEQYNSTYRVVSVLTVLHQDWLNGKEYKCKVSNKALAAPIEKTISKAKGQPREPQVYTLPPCREEMTKNQVSLWCLVKGFYPSDIAVEWESNGQPENNYKTTPPVLDSDGSFFLYSKLTVDKSRWQQGNVFSCSVMHEALHNHYTQKSLSLSPGK
light 2: not shown
Δ [3]: 3.45
EC50B, pSTAT3+ Jurkat PD-1 cells, PD-1 blocked [4]: 0.526 nM
EC50NB, pSTAT3+ Jurkat PD-1 cells [4]: 4 pM

B3: TVU155 (bispecific antibody, human IgG1, kappa, lambda, L234A L235A)
heavy 1: B2 heavy 1
light 1: not shown
heavy 2: B2 heavy 2 with S54R
light 2: not shown
Δ [3]: 2.96
EC50B, pSTAT3+ Jurkat PD-1 cells, PD-1 blocked [4]: 0.951 nM
EC50NB, pSTAT3+ Jurkat PD-1 cells [4]: 4 pM

B4: WBL338 (bispecific antibody)
heavy 1: B2 heavy 1
light 1: not shown
heavy 2: B2 heavy 2 with S54R, A106W
light 2: not shown
Δ [3]: 8.18
EC50B, pSTAT3+ Jurkat PD-1 cells, PD-1 blocked [4]: 1.52 nM
EC50NB, pSTAT3+ Jurkat PD-1 cells [4]: 3 pM

B5: DMT806 (bispecific antibody, human IgG1, kappa, lambda, L234A L235A)
heavy 1: B2 heavy 1
light 1: not shown
heavy 2: not shown
light 2: DIQMTQSPSSVSASVGDRVTITCRASQGISSWLAWYQHKPGKAPKLLIYVASSLQSGVPSRFSGSGSGTDFTLTISSLQPEDFATYYCQQANSFPLTFGGGTKVEIKRTVAAPSVFIFPPSDEQLKSGTASVVCLLNNFYPREAKVQWKVDNALQSGNSQESVTEQDSKDSTYSLSSTLTLSKADYEKHKVYACEVTHQGLSSPVTKSFNRGEC
Δ [3]: 2.79
EC50B, pSTAT3+ Jurkat PD-1 cells, PD-1 blocked [5]: 12.4 nM
EC50NB, pSTAT3+ Jurkat PD-1 cells [5]: 0.17 nM
